test: yeast display, Sf9 membrane polyspecificity reagent, FACS + sequencing; frameworks hold sequencing errors
How it was run: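 Genes from sorted yeast were amplified by colony PCR, read by MiSeq 2 × 250 sequencing and filtered on CDR length. These cells carried a synthetic nanobody library in Saccharomyces cerevisiae BJ5465 and were sorted by FACS into low and high (top ~1%) gates on anti-HA and streptavidin fluorescence. Polyreactivity is labelled according to the gate of origin.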

Sequence | polyreactivity (PSR sort gate)
QVQLVESGGVLVQAGGSLRLSCAASGRTFDSYAMGWYRQAPGKERELVAAISSRGTRTYYADSVKWRFTISRDNAKNTVYLQMNSLKPEDTAVYYCNAGGAYEYDYWGQGTQVTVSS | high polyreactivity
QVQLVESGGGLVQAGGSLRLSCAVSGGILYEYAMGSDREAPGKERELVAAITTSGSTYYADSVKGRFTISRDNAKNTVDLLMNSLKPEDTAVYYCAADSDYFYYDLDYWGQGTQVTVSS | low polyreactivity
QVQLVESGGGLVQAGGSLRLSCAASGITFYVYAMGWYRQAPGKERELVAANSSGGGSTYYADSVKGRFTISRDNAKNTVYLQMNSLKPEDTAVYYCNKLFPGTYDGAHGYWGQGTQVTVSS | low polyreactivity
QVQLVESGGGLVQAGGSLRLSCAASGRTFKYNAMGWYRQAPGKEREFVAAISSRGGSTYYADSVKGRFTISRDNAKNTVYLQMNSLKPEDTAVYYCNKLYGTRWSGLADDYWGQGTQVTVSS | high polyreactivity
QVQLVESGGGLVQAGGSLRLSCAASGSTFLYYAMGWYRQAPGKERELVARITTRVGRTYYADSVKGRFTISRDNAKNTVYLQMNSLKPEDTAVYYCAAYPDYSYYYWGQGTQVTVSS | high polyreactivity
QVQLVESGGGLVQAGGSLRLSCAASGLTFDGNAMGWYRQAPGKERELVATIRSGGGTNYADSVKGRFTISRDNAKNTVYLQMNSLKPEDTAVYYCNADYRSVYSPVQYPGEYYYWGQGTQVTVSS | low polyreactivity
QVQLVESGGGLVQAGGSLRLSCAASGSIFGYYAMGWYRQAPGKERELVAAISWSGGRTYYADSVKGRFTISRDNAKNTVYLQMNSLKPEDTAVYYCNARWRSGPRAYDYWGQGTQVTVSS | high polyreactivity
QVQLVESGGGLVQAGGSLRLSCAASGNTYIRNVMGCYRQAPGKERELVAGIRTGGSTFYADSVKGRFTISRDNAKNPVYLQMNSLKPEDTAVYYCAGYQLRLVYGYGYWGQGTQVTVSS | low polyreactivity
QVQLVESGGGLVQAGGSLRLSCAASGSIFADYAMGWYRQAPGKERELVAAITGSGGRTYYADSVKGRFTISRDNAKNTVYLQMNSLKPEDTAVYYCAAYQVVWDPYTRYDYWGQGTQVTVSS | low polyreactivity
QVQLLESGGGLVQAGGSLRLSCADSGSIFPKNAIGWYRQAPGKERELVAGITSRTGRTYYADSVKGRFTISRDNSKNTVYLQMNRLKPEDTAVYYCAARIGGGPVKYDYWGQGTQVTVSS | high polyreactivity
QVQLVESGGGLVQAGGSLRLTCAASGSIFRVNAMGWYRQAPGKERELVAAISSGGSTHYADSVKGRFTMSRDNAKNTVYLLMNSLKPEDTAVYYCAVRGERRYIYDYWGQGTQVTVSS | high polyreactivity
QVQLVETGGGLVQAGGSLRLSCAASGRIFYYNAMGWYRQAPGKERELVAAITGSGGSTYYADSVKGRFTISRDNEMNTVYLQMNSLKPEDSAVYYCAAVNPYIRGRYDYWGQGTQVTVSS | high polyreactivity
QVQLVESGGCLVQAGGSLRLSCAASGFIFRWYAMGWYRQAPGKERELVAAISLGGSTNYADSVKGRFTISRDNAKNTVYLQMNSLKPEDTAVYYCNARYVSYSGRYVIGQYVKYDYWGKGTQVTVSS | high polyreactivity
QVQLVESGGGLVQAGGSLRLSCAASGSTFWLYAMGWYRQAPGKERELVATISERGGSTYYADSVKGRFTISRDNAKNTVYLQMNSLKPEDTAVYYCAADQFHYPRGRRYDYWGQGTQVTVSS | low polyreactivity
QVQLVESGGGLVQAGGSLRLSCAASGFIFSYYTMGWYRQAPGKEWEVVAAIRSSGGSTYADSVKGRFTISRDNAKNTVYLQKNSLKPEDTAVYYCAAVQTWRWVYARDYWGQGTQVTVSS | high polyreactivity
QVQLVESGGGLVQAGGSLRLSCAASGSTFLGNAMGWYRQAPGKERELVATITGSSGSTYYADSVKGRFTISRDNAKNTVYLQMNSLKPEDTAVYYCNTVYNYWDGYDYWGQGSQVTVSS | low polyreactivity
QVQLVESGGGLVQAGGSLRLSCASSGRTLPYNAMGWYRQAPGKERELVAAISKRGSSTYYADSVKGRFTLSRDNAKNTVYLQMNSLKPEDTAVYYCAKGGSFYYWGQGTQVTVSS | high polyreactivity
QVQLVESGGGLVQAGGSLRLSSAASGIIFRDNAMGWYRQAPGKERELVAAIDSSGGTTYADSVKGRFTISRDNAKNTVYLQMNSLKPEDTAVYYCATEVYWTVSYYGYDYYGGNYYYWGQGTQVTVSS | low polyreactivity
HVQLVESGGGVVQAGGSLRLSCAASGIIFYYYTMGWYRHAPGKQRELVAAISTSGGRTYYADSVKGRFTISRDTAKNTVYLQMNSLKPEDTAVYYCNARSRHTTLDYWGQGTQVTVSS | high polyreactivity
QVQLVESGVGLVQAGGSLRLSCAASGNTFTAYSMGWYRQAPGKERELVAAISSSGRTNYADSVKGRFTISRDNAKNTVYLQMNSLKPADTAVYYCAAAALRRNGVREGNYWGQGTQVTVSS | high polyreactivity
QVQLVESGGGLVQAGGSLRLSCAASGIIFGYYTMGWYRQAPGKERELVARITTGSSTNYADSVKGRFTISRDNAKNTVYLQMNSLKPEDTAVYYCAAVPIAADKANGYDYWGQGTQVTVSS | low polyreactivity
QVQLVESGGGLVQAGGSLRLSCAASGSIFKPYAMGWYRQAPGKERELVAAISRSGSTYYADSVKGRFTISRDNAKNTVYLQMNSLKPEDTAVYYCAKDVRPNYYAAFNYWGQGTQVTVSS | low polyreactivity

Sequence | polyreactivity (PSR sort gate)
QVQLVESGGGLVQAGGSLRLSCAASGRIFDYYTMGWYRQAPGKERELVAAITWIGGSTYYADSVKGRFTISRDNAKNTVYLQMKSLKPEETAVYYCYAEGTALPYRADTVGGYYYWGQGTQVTVSS | low polyreactivity
QVQLVESGGGLVQAGGSLRISCAASGGIIAINSMRCYRQAPGKERELVAAISWGDGITYYSDSVKRRFTISRDNAKYTVYLHMISLKPEDTAVYYCAADEDEYRGGDESWGQGTQVTVSA | low polyreactivity
QVQLVESGGGLVQAGGSLRLSCAASGSIFNRYAMGWYRPAPGKERELVAAISRSGGRTYYADSVKGRFTISRDNAKNTVYLQMNSLKPEDTAVYYCAADKYYRQHEFDYWGQGTQVTVSS | high polyreactivity
QVQLVESVGALVQAGGSLRLSCAASGSTFRRNAMGWYRQAPGKERELVATITTRGGSTYYADSVKGRFTLSRDNAKNTVNLQMNSLKPEDTAVYYCAADRRSGYSRSKYGRGDYWGQGTQVTVSS | high polyreactivity
QVQLVESGGGLVQAGGSLRLSCAASGRTVNAMGWYRQAPGKERELVAAINSGTSTYADSVKGRFTISRDNAKNTVYLQMNSLKPEDTAVYYCAKTYFWPFHGRFVGYDYWGQGTQVTVSS | low polyreactivity
QVQLVESGGGLVQAGGSLRLCCAASGFTFPYNGMGWYRQAPGKERELVASISWSGASTYYADSVKGRFTISRDNAKNTVYLQMNSLKPEDTAVYYCAADPGYYSWGCSQDDYWGQGTQVTVSS | low polyreactivity
QVQLVESGGGLVQAGGSLRLSCAASGLTFQGYAMGWYRQAPGKERELVAAISGSGGSTYYADSVKGRFTISRDNAKNTVYLQMNSLKPEDTAVYYCAADDSYYGIDYGYWGQGTQVTVSS | low polyreactivity
QVQRVESGGGLVQAGGSLRLSCAASANTYLNAMGWYIQAPGKESELVAAISKGGADTYYADSVKGRFTISRDNAKNTVYLQMTSLIPEDSAVYYCADVGYADGWWVDYPWTYDYWGQGTQVTVSS | low polyreactivity
QVQLVESGGGLVQSGGSLRLSCAASGSIFTWYTMGWYRQAPGKERELVAAISWSGGRTYYADSVKGRFTISRDNAKNTVYLQMNSLKPEDTAVYYCAASAYGRPPFDYWGQGTQVTVSS | high polyreactivity
QVQLVESGGGLVQAGGSHRLSCAASGLTFRKYAMGWYRQAPGKERELVATISRNGGSTYYADSVKGRFTISRDNAKNTVYLQMNSLKPEDTAVYYCAADYYTYDYAGYGDWGQGTQVTVSS | high polyreactivity
QVQLVESGGGLVQAGGSLRLSCAATGFTSYLYTMGGYRQAAGKERELVAAISNSGGNTYYADSVKGRFTISRDNANNTVYLQMNSLKPEDTAVYYCAARLFAAKYRYGYWGQGTQVTVSS | high polyreactivity
QGQLEESGGCLVQAGGSLRLSCAASGIIFYKNAMGWYRPAPGKERELVAAISGSGGRTYYADSVKGRFTISRDNAKNTVYLQMNSLKPEVTAVSYCAARQPYRHGYESWGQGTQVTVSS | high polyreactivity
QVQLVESGGGLVQAGGSLRLSCAASGSTFSGNAMGWYRQAPGKERELVAAINSVRTYYADSVKGRFTISRDNAKNTVYLQMNSLKPEDTAVYYCAARQGYSSRYPAKGYYWGQGTQVTVSS | high polyreactivity
QVQLVESGGGLVQAGGSLRLSCAASGNTFGNYGKGWYRQAPGKEREFVAAITSRGTSTYYADSVKGRFTISRDNAKNTVYLQMNSLKPEDTAVYYCNARPRYKYPRYDYWGQGTQVTVSS | high polyreactivity
QVQLVDSGGGIVQAGGSLRLSCAASGSTFVANAMGWYRQAPGKECEFVAAISRSGVRTYYADSVKGRFTISRDNAKNTVYLQMNSLKPEDTAVYYCAADGYWWTYSRYDYWGQGTQVTVSS | low polyreactivity
QVQLVESGGGLVQAGGSLRISCAASVSTFWYYAMGWYIQAPRKERELVAPISRTGGGTYYADSVKGRFTISRDNAKNSVYLQMNSLKPEDTAVYYCARGSVYSDAQIYDYWGQGTQVTVSS | low polyreactivity
QVQLVESGGGLVQAGGSLRLSCAASGSIFGIYAMGWYRQAPGKERELVAAISRGGSTYYADSVKGRFTISRDNAKNTVYLQMNSLKPEDTAVYYCNAKLIVTPGRGDYWGQGTQVTVSS | high polyreactivity
QVQLVESGGGLVQAGGSLRLSCAASGRTLDHYAMGWYRQAPGKERELVAAITSSGGSTYYADSVKGRFTISRDNAKNTVYLQMNSLKPEETAVSYCAADVSSQREWIIEHDYWGQGTQVTVSS | low polyreactivity
QVQLVESGGGLVQAGGSLRLSCAASGRIFNWYGMGWYRQAPGKERELVATISSSGDSTYYADSVKGRFTISRDNAKNTVYLQMNSLKPEDTAVYYCAKRARYKFGYWGQGTQVTVSS | high polyreactivity
QVQLVESGGGLVQAGGSLRLSCAASGRIFHYYAMGWYRQAPGTERELVAAITSSGGSTYYADSVKGRFTISRDNAKNTVYLQMNSLKPEDTAVYYCAAGLIVGRFLRYDYWGQGTQVTVSS | high polyreactivity
QVQIVESGGGLVQAGGSLRISCAASGRTIHLYDMGWYRQAPGKERELVAAITWSSGRTYYADSVKGRVTISRDNAKNTVYVQMNILKPEDTEVYYCAADVWGGLLPGYDYWGQGTQVTVSS | high polyreactivity

— the nanobody polyreactivity screen of Harvey et al. (2022)
